The source of these data is the supplement of paper PMC9170038.

This data set relates to MS2 coat protein. Nature of the data set: apparent KD of MS2 coat protein; designed switch direction (-1 OFF switch, 1 ON switch): -1; higher = weaker reporter binding. The method, boiled down: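 Normalised cluster fluorescence was curve-fitted, and each design's median over clusters is its apparent KD. Before this, SNAP-549-labelled MS2 coat protein was titrated from 0.7 or 1.5 nM, doubling to 3 µM, over RNA switches transcribed on Illumina chips by stalled E. coli RNA polymerase. Titrations had no input, 200 uM small-molecule ligand, or an oligonucleotide input, and steps lasted 0.8–1.5 h (lowest) to 10–20 min (highest).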

The mark [1] stands for this setting: input ligand: microRNA oligo, concentration not stated.
Where [2] appears, read: Eterna round: R95, input ligand: microRNA oligo, concentration not stated.
Where [3] appears, read: Eterna round: R95, input ligand: FMN 200 uM.
Setting [4] is: Eterna round: R95, input ligand: none.

Consider “UAUAUAUAGUAAGGAUAUGUAUAUAUUUUACAAACAGAAGGUACUGACAUGAGGAUCACCCAUGUUUUAGUGUGGGCAUGUAGA [JMF's solution 68] (Eterna round: R96, puzzle: Exclusion NG 1)”, for which the “apparent KD of MS2 coat protein” value under setting [1] came to 0.0433 µM.
As for “UAUAUAUAGUAAGGAUAUGUAUAUUUUUUAUAAACAGAAGGUACUGACAUGAGGAUCACCCAUGUUUUAGUGUGGGCAUGUAGA [JMF's solution 53] (Eterna round: R96, puzzle: Exclusion NG 1)”, the “apparent KD of MS2 coat protein” value under setting [1] came to 0.0638 µM.
As to “UAUAUAUAGUAAGGAUAUGUAUCUAUUUUAUAAACAGAAGGUACUGACAUGAGGAUCACCCAUGUUUUAGUGUGGGCAUGUAGA [JMF's solution 8] (Eterna round: R96, puzzle: Exclusion NG 1)”, the “apparent KD of MS2 coat protein” value under setting [1] was 0.0716 µM.
“UAUAUGUAAGGAUAUCUCGUCAUGGAGGAAACUCCAUGACGAGAGAAGGUACAUGAGGAUCACCCAUGUCUAUU [Mod of Fisker 24 - Jieux - Exclusion 4] (Eterna round: R97, puzzle: Exclusion 4)”: the “apparent KD of MS2 coat protein” value (input ligand: FMN 200 uM) was 0.117 µM and the “apparent KD of MS2 coat protein” value (input ligand: none) turned out to be 0.0331 µM.
“UAUAUGUCAGGAUAUCGCAACUGCGCGCGCAAGAAUCAUAACGAGAAGGGACAUGAGGAUCACCCAUGUACACU [I dont know] (puzzle: Exclusion 4)”: the “apparent KD of MS2 coat protein” value under setting [2] worked out at 0.0181 µM.
Regarding “UAUAUGUCAGGAUAUUGUUAAUUUAGUUGUUUGUAUUAGUUCGAGAAGGGACAUGAGGAUCACCCAUGUUGUUU [Ex4 #57] (Eterna round: R97, puzzle: Exclusion 4)”, the “apparent KD of MS2 coat protein” value (input ligand: FMN 200 uM) is 0.0288 µM and the “apparent KD of MS2 coat protein” value (input ligand: none) is 0.0296 µM.
Taken in the same sequence, the figures for “UAUAUUGGAGGAUAUCUCUCAGUGAACAUGAGGAUCACCCAUGUUGGUGAACGACGGCACAGAGAAGGUCAACGCA [Eternabot (L2) Solution 61] (Eterna round: R97, puzzle: Exclusion 5)” were 0.314 µM and 0.499 µM.
As for “UAUCGGCGGACCGAGGCUUUUUGCUCGUCUUAUGCUACAACAUGAGGAUCACCCAUGUGGUGGUGGUCCGUUGUAGU [JL ViennaUCT Bitein mod 9] (puzzle: Sensor v3, turn-off variant 2)”, the “apparent KD of MS2 coat protein” value worked out at 0.0197 µM under setting [3], 0.0135 µM under setting [2] and 0.0318 µM under setting [4].
For “UAUGGUAAAGUCAGGAUAUACGUGCAGUUUUCUAGGUAGAAGGGACAUGAGGAUCACCCAUGUAUGGUAGUGUU [Ex4 #46] (Eterna round: R97, puzzle: Brourd's mod of Exclusion 4)”, the “apparent KD of MS2 coat protein” value came to 0.0951 µM (input ligand: FMN 200 uM) and 0.0835 µM (input ligand: none).
Turning to “UAUGGUUAAGUCAGGAUAUGCUCGUAGAGGUCUAUGCAGAAGGGACAUGAGGAUCACCCAUGUAUGGUCGUGUU [Ex4 #67] (Eterna round: R97, puzzle: Brourd's mod of Exclusion 4)”, the “apparent KD of MS2 coat protein” value runs as follows: (input ligand: FMN 200 uM) 0.161 µM; (input ligand: none) 0.067 µM.
Regarding “UAUGUGUCAGGAUAUCGAUUAGAACAGAAUUUAACAAUAGUCGAGAAGGGACAUGAGGAUCACCCAUGUUCAUC [JR_Ex4_Sub022] (Eterna round: R97, puzzle: Exclusion 4)”, the “apparent KD of MS2 coat protein” value is, setting by setting: (input ligand: FMN 200 uM) 0.0264 µM; (input ligand: none) 0.0189 µM.
Consider “UAUGUGUCAGGAUAUUAAUUAUAACAGAAUUUAACAAUGAUUAAGAAGGGACAUGAGGAUCACCCAUGUUCAUC [JR_Ex4_Sub024] (Eterna round: R97, puzzle: Exclusion 4)”, for which the “apparent KD of MS2 coat protein” value by setting is: (input ligand: FMN 200 uM) 0.0227 µM; (input ligand: none) 0.0204 µM.
Take “UAUGUUGUUGUGAGGAUAUACUUUGUUUGACCGUAGUAGAAGGCACAUGAGGAUCACCCAUGUAGAUUUUUGGU [JR_BME4_Sub008] (puzzle: Brourd's mod of Exclusion 4)”: the “apparent KD of MS2 coat protein” value under setting [2] was determined as 0.00912 µM.
As to “UAUUAAACAUAGGAUAUCGAAUAAAUCAUUUAACGAGAAGGAUGAACAUGAGGAUCACCCAUGUGGUAUCAUGG [Mat - Exclusion 6 - JL Mod - D14] (puzzle: Exclusion 6)”, the “apparent KD of MS2 coat protein” value under setting [2] turned out to be 0.242 µM.
Take “UAUUAAUGCAAGGAUAUGCUAUUAAUUUUUUUUGCAGAAGGUGCAACAUGAGGAUCACCCAUGUUUGAGGGUAU [JR_E6_Sub029] (puzzle: Exclusion 6)”: under setting [2], the “apparent KD of MS2 coat protein” value amounted to 0.0559 µM.
In the case of “UAUUACAAGCGAAGAUCCCACAUGAGGAUCACCCAUGUGCUCGUCUUAUAAGGUACUGUGACGAAAGUCACGGUACC [Sensor 3, v1 - 91 v16] (Eterna round: R97, puzzle: Sensor, turn-off variant 1)”, the “apparent KD of MS2 coat protein” value stood at 0.0327 µM (input ligand: FMN 200 uM) and 0.0311 µM (input ligand: none).
Turning to “UAUUAGCAAGCAACUGGGUACAUGAGGAUCACCCAUGUGCUCGUCUUAUAAGGUACUGUGACGAAAGUUACGGUACC [mod--Eli115] (Eterna round: R97, puzzle: Sensor, turn-off variant 1)”, the “apparent KD of MS2 coat protein” value by setting is: (input ligand: FMN 200 uM) 0.0179 µM; (input ligand: none) 0.0174 µM.
Take “UAUUAGCAAGCAAGAUCCCACAUGAGGAUCACCCAUGUGCUCGUCUUAAUUCCAGAAUUACUGGGCUCUCGUCUUAU [JR_STOV1_Sub090] (Eterna round: R97, puzzle: Sensor, turn-off variant 1)”: the “apparent KD of MS2 coat protein” value is, setting by setting: (input ligand: FMN 200 uM) 0.041 µM; (input ligand: none) 0.0406 µM.
Take “UAUUAGCAAGCGAGAUCCCACAUGAGGAUCACCCAUGUGCUCGUCUUAUAAAAGACUGUGACGAUAGUCACGGUCAC [Mat - Sensor, turn-off var - Eli Mod - D22] (Eterna round: R97, puzzle: Sensor, turn-off variant 1)”: the “apparent KD of MS2 coat protein” value (input ligand: FMN 200 uM) worked out at 0.0142 µM and the “apparent KD of MS2 coat protein” value (input ligand: none) came out at 0.0131 µM.
For “UAUUAGCAAGCGAGAUCCCACAUGAGGAUCACCCAUGUGCUCGUGCAUCCAGAAUUACUGGGUGCUGCUCGUCUUAU [Winner reversed engineered 13] (Eterna round: R97, puzzle: Sensor, turn-off variant 1)”, the “apparent KD of MS2 coat protein” value turned out to be 0.0152 µM (input ligand: FMN 200 uM) and 0.0148 µM (input ligand: none).
“UAUUAGCAAGUAAGAUCCCACAUGAGGAUCACCCAUGUGCUCGUCAUAUAACGUACUGUGAGGAAACUCACGGUACG [Sensor-V1 #84] (Eterna round: R97, puzzle: Sensor, turn-off variant 1)”: the “apparent KD of MS2 coat protein” value by setting is: (input ligand: FMN 200 uM) 0.085 µM; (input ligand: none) 0.103 µM.
On to “UAUUAGCUAGGAUAUACAUGAGGAUCACCCAUGUCACGGGUCCACUUGUCCUAUGCGUGUAGAAGGAGCGACCC [JL Ceriza mod 3] (puzzle: Exclusion 3)”, for which the “apparent KD of MS2 coat protein” value under setting [2] was 0.0207 µM.
As for “UAUUAGUAAGGAUAUCUCGUCAUGGACGUGAGUCCAUGACGAGAGAAGGUACAUGAGGAUCACCCAUGUCCAUU [Mod of Fisker 20 - Jieux - Exclusion 4] (Eterna round: R97, puzzle: Exclusion 4)”, the “apparent KD of MS2 coat protein” value was found to be 0.0165 µM (input ligand: FMN 200 uM) and 0.0141 µM (input ligand: none).
On to “UAUUAGUGAGGAUAUGGUAAAGAUAAGAUGAUGAAAGAACUCCAGAAGGCACAUGAGGAUCACCCAUGUAGUAG [JL-ex4-2.09 Jieux mod] (puzzle: Exclusion 4)”, for which the “apparent KD of MS2 coat protein” value under setting [2] worked out at 0.0195 µM.
Turning to “UAUUAUCAAGCUUGAUCCCACAUGAGGAUCACCCAUGUGCUCGUCUUAUUUCUGUCCUUAUUGUUCUCUCGUCUAAU [JR_STOV1_v2_Sub097] (Eterna round: R97, puzzle: Sensor, turn-off variant 1)”, the “apparent KD of MS2 coat protein” value is, setting by setting: (input ligand: FMN 200 uM) 0.0802 µM; (input ligand: none) 0.0941 µM.
Take “UAUUCACAUGAGGAUCACCCAUGUCAGGAUAUAGAAGCGUAGUCCGCAAGAAAGCUUACUAGAAGGGACGUAUU [EX1 B.22] (Eterna round: R97, puzzle: Exclusion 1)”: the “apparent KD of MS2 coat protein” value reads like this: (input ligand: FMN 200 uM) 0.0188 µM; (input ligand: none) 0.0185 µM.
Taken in the same sequence, the figures for “UAUUGCUGAGGAUAUAUAUAGAGCAUUUUCCUCGUGACAGAACAUGAGGAUCACCCAUGUAGAAGGCAGAAGUG [Eternabot (L2) Solution 87] (Eterna round: R97, puzzle: Exclusion 2)” were 0.263 µM and 0.192 µM.
For “UAUUUGUGAGGAUAUGAGUCGUAGAACAAUAGUACUACGUCUCAGAAGGUACAUGAGGAUCACCCAUGUUCCUC [Fiskers Ex 4 Super Stable 44 mod 31] (puzzle: Exclusion 4)”, under setting [2], the “apparent KD of MS2 coat protein” value turned out to be 0.0184 µM.
Consider “UAUUUUGCAAGCAGAUCCCACAUGAGGAUCACCCAUGUGCUCGUCUUAUAAGGUUCUGUGACGAUAGUCACGGUACC [mod -Eli mod] (Eterna round: R97, puzzle: Sensor, turn-off variant 1)”, for which the “apparent KD of MS2 coat protein” value is, setting by setting: (input ligand: FMN 200 uM) 0.0459 µM; (input ligand: none) 0.0461 µM.
For “UCAAGUAUGUAGGAUAUCGAUGUCUGCGGACAUCGAGAAGGACGUACAUGAGGAUCACCCAUGUAACUUGCAUG [Exclusion 6 - B - 10:c] (puzzle: Exclusion 6)”, the “apparent KD of MS2 coat protein” value under setting [2] came to 0.0709 µM.
For the sequence “UCAAGUUUUUUGUUUUUUAACAUGAGGAUCACCCAUGUAUUUUUAUAGUAUGUGUGAAUAAGAUCUCGUGGUCUUAU [JR_SV3TOV1_Sub099] (puzzle: Sensor v3, turn-off variant 1)”, the “apparent KD of MS2 coat protein” value reads like this: under setting [3], 0.0318 µM; under setting [2], 0.0781 µM; under setting [4], 0.0365 µM.
Consider “UCAGGCUAUUAAACCGCCGACAUGAGGAUCACCCAUGUACUUCAUGCGCUAGCUUGCUCGUCUACCUCAAGGAUCCG [Eternabot (L2) Solution 24] (Eterna round: R97, puzzle: Sensor, turn-off variant 1)”, for which the “apparent KD of MS2 coat protein” value reads like this: (input ligand: FMN 200 uM) 0.0677 µM; (input ligand: none) 0.0686 µM.
Turning to “UCCAGCAUACGGAGAUCCAACAUGAGGAUCACCCAUGUCUGGAAAGCUUUUUGCUUGUCUUAUCCGUCUCUGUGUGU [Design #7] (Eterna round: R97, puzzle: Sensor, turn-off variant 1)”, the “apparent KD of MS2 coat protein” value worked out at 0.0327 µM (input ligand: FMN 200 uM) and 0.0358 µM (input ligand: none).
